According to patent publication US20230407373A1 (priority 2020, published 2023):

What was measured:
[1] = test system: SARS-CoV-2 gRNA and sgRNAs; assay type: binding; settings: for target (unweighted spectral count in RNP capture): Probe II capture, LC-MS/MS LFQ; for background (unweighted spectral count in control): no-probe control pull-down, used as background for Probe II
HCoV-OC43 gRNA and sgRNA = assay type: binding; settings: for target (unweighted spectral count, OC43 Probe II capture): type n_36_v, FDR<10%; for target (unweighted spectral count, OC43 Probe II capture) / target (unweighted spectral count): tested against no-probe control; for target (unweighted spectral count): OC43 Probe II, 24 hpi (type n_24_v), infected cells; for target (unweighted spectral count, OC43 Probe II) / background (unweighted spectral count, no-probe control): type n_48_v, 48 hpi; for target (unweighted spectral count, OC43 Probe II): OC43 Probe II capture on infected cells; for background (unweighted spectral count, no-probe control): no-probe control on infected cells

Molecule	target (unweighted spectral count in RNP capture) [1]	background (unweighted spectral count in control) [1]	target (unweighted spectral count, OC43 Probe II capture) (HCoV-OC43 gRNA and sgRNA; 36 hpi)	target (unweighted spectral count) (HCoV-OC43 gRNA and sgRNA)	target (unweighted spectral count, OC43 Probe II) (HCoV-OC43 gRNA and sgRNA)	background (unweighted spectral count, no-probe control) (HCoV-OC43 gRNA and sgRNA)	target (spectral count) (HCoV-OC43 gRNA and sgRNA; type s_36_m, HCoV-OC43-infected HCT-8 cells, 36 hpi, Probe II)	background (spectral count) (HCoV-OC43 gRNA and sgRNA; type s_36_m, uninfected-probe control, 36 hpi, Probe II)
HNRNPA3 (protein, UniProt P51991 1-378, looked up) Heterogeneous nuclear …: MEVKPPPGRPQPDSGRRRRRRGEEGHDPKEPEQLRKLFIGGLSFETTDDSLREHFEKWGTLTDCVVMRDPQTKRSRGFGFVTYSCVEEVDAAMCARPHKVDGRVVEPKRAVSREDSVKPGAHLTVKKIFVGGIKEDTEEYNLRDYFEKYGKIETIEVMEDRQSGKKRGFAFVTFDDHDTVDKIVVQKYHTINGHNCEVKKALSKQEMQSAGSQRGRGGGSGNFMGRGGNFGGGGGNFGRGGNFGGRGGYGGGGGGSRGSYGGGDGGYNGFGGDGGNYGGGPGYSSRGGYGGGGPGYGNQGGGYGGGGGYDGYNEGGNFGGGNYGGGGNYNDFGNYSGQQQSNYGPMKGGSFGGRSSGSPYGGGYGSGGGSGGYGSRRF	51	1	25	22	–	–	–	–
ATXN2 (protein, UniProt Q99700 1-1313, looked up) Ataxin-2: MRSAAAAPRSPAVATESRRFAAARWPGWRSLQRPARRSGRGGGGAAPGPYPSAAPPPPGPGPPPSRQSSPPSASDCFGSNGNGGGAFRPGSRRLLGLGGPPRPFVVLLLPLASPGAPPAAPTRASPLGARASPPRSGVSLARPAPGCPRPACEPVYGPLTMSLKPQQQQQQQQQQQQQQQQQQQQQQQPPPAAANVRKPGGSGLLASPAAAPSPSSSSVSSSSATAPSSVVAATSGGGRPGLGRGRNSNKGLPQSTISFDGIYANMRMVHILTSVVGSKCEVQVKNGGIYEGVFKTYSPKCDLVLDAAHEKSTESSSGPKREEIMESILFKCSDFVVVQFKDMDSSYAKRDAFTDSAISAKVNGEHKEKDLEPWDAGELTANEELEALENDVSNGWDPNDMFRYNEENYGVVSTYDSSLSSYTVPLERDNSEEFLKREARANQLAEEIESSAQYKARVALENDDRSEEEKYTAVQRNSSEREGHSINTRENKYIPPGQRNREVISWGSGRQNSPRMGQPGSGSMPSRSTSHTSDFNPNSGSDQRVVNGGVPWPSPCPSPSSRPPSRYQSGPNSLPPRAATPTRPPSRPPSRPSRPPSHPSAHGSPAPVSTMPKRMSSEGPPRMSPKAQRHPRNHRVSAGRGSISSGLEFVSHNPPSEAATPPVARTSPSGGTWSSVVSGVPRLSPKTHRPRSPRQNSIGNTPSGPVLASPQAGIIPTEAVAMPIPAASPTPASPASNRAVTPSSEAKDSRLQDQRQNSPAGNKENIKPNETSPSFSKAENKGISPVVSEHRKQIDDLKKFKNDFRLQPSSTSESMDQLLNKNREGEKSRDLIKDKIEPSAKDSFIENSSSNCTSGSSKPNSPSISPSILSNTEHKRGPEVTSQGVQTSSPACKQEKDDKEEKKDAAEQVRKSTLNPNAKEFNPRSFSQPKPSTTPTSPRPQAQPSPSMVGHQQPTPVYTQPVCFAPNMMYPVPVSPGVQPLYPIPMTPMPVNQAKTYRAVPNMPQQRQDQHHQSAMMHPASAAGPPIAATPPAYSTQYVAYSPQQFPNQPLVQHVPHYQSQHPHVYSPVIQGNARMMAPPTHAQPGLVSSSATQYGAHEQTHAMYACPKLPYNKETSPSFYFAISTGSLAQQYAHPNATLHPHTPHPQPSATPTGQQQSQHGGSHPAPSPVQHHQHQAAQALHLASPQQQSAIYHAGLAPTPPSMTPASNTQSPQNSFPAAQQTVFTIHPSHVQPAYTNPPHMAHVPQAHVQSGMVPSHPTAHAPMMLMTTQPPGGPQAALAQSALQPIPVSTTAHFPYMTHPSVQAHHQQQL	22	1	4	–	6	1	–	–
RBMS2 (protein, UniProt Q15434 1-407, looked up) RNA-binding motif, …: MLLSVTSRPGISTFGYNRNNKKPYVSLAQQMAPPSPSNSTPNSSSGSNGNDQLSKTNLYIRGLQPGTTDQDLVKLCQPYGKIVSTKAILDKTTNKCKGYGFVDFDSPSAAQKAVTALKASGVQAQMAKQQEQDPTNLYISNLPLSMDEQELEGMLKPFGQVISTRILRDTSGTSRGVGFARMESTEKCEAIITHFNGKYIKTPPGVPAPSDPLLCKFADGGPKKRQNQGKFVQNGRAWPRNADMGVMALTYDPTTALQNGFYPAPYNITPNRMLAQSALSPYLSSPVSSYQRVTQTSPLQVPNPSWMHHHSYLMQPSGSVLTPGMDHPISLQPASMMGPLTQQLGHLSLSSTGTYMPTAAAMQGAYISQYTPVPSSSVSVEESSGQQNQVAVDAPSEHGVYSFQFNK	14	1	4	–	–	–	–	–
ZC3H7A: host protein, UniProt Q8IWRD (protein, UniProt Q8IWR0 1-971, looked up) Zinc finger CCCH …: MSNVSEERRKRQQNIKEGLQFIQSPLSYPGTQEQYAVYLRALVRNLFNEGNDVYREHDWNNSISQYTEALNIADYAKSEEILIPKEIIEKLYINRIACYSNMGFHDKVLEDCNIVLSLNASNCKALYRKSKALSDLGRYKKAYDAVAKCSLAVPQDEHVIKLTQELAQKLGFKIRKAYVRAELSLKSVPGDGATKALNHSVEDIEPDLLTPRQEAVPVVSLPAPSFSHEVGSELASVPVMPLTSILPLQVEESALPSAVLANGGKMPFTMPEAFLDDGDMVLGDELDDLLDSAPETNETVMPSALVRGPLQTASVSPSMPFSASLLGTLPIGARYAPPPSFSEFYPPLTSSLEDFCSSLNSFSMSESKRDLSTSTSREGTPLNNSNSSLLLMNGPGSLFASENFLGISSQPRNDFGNFFGSAVTKPSSSVTPRHPLEGTHELRQACQICFVKSGPKLMDFTYHANIDHKCKKDILIGRIKNVEDKSWKKIRPRPTKTNYEGPYYICKDVAAEEECRYSGHCTFAYCQEEIDVWTLERKGAFSREAFFGGNGKINLTVFKLLQEHLGEFIFLCEKCFDHKPRMISKRNKDNSTACSHPVTKHEFEDNKCLVHILRETTVKYSKIRSFHGQCQLDLCRHEVRYGCLREDECFYAHSLVELKVWIMQNETGISHDAIAQESKRYWQNLEANVPGAQVLGNQIMPGFLNMKIKFVCAQCLRNGQVIEPDKNRKYCSAKARHSWTKDRRAMRVMSIERKKWMNIRPLPTKKQMPLQFDLCNHIASGKKCQYVGNCSFAHSPEEREVWTYMKENGIQDMEQFYELWLKSQKNEKSEDIASQSNKENGKQIHMPTDYAEVTVDFHCWMCGKNCNSEKQWQGHISSEKHKEKVFHTEDDQYCWQHRFPTGYFSICDRYMNGTCPEGNSCKFAHGNAELHEWEERRDALKMKLNKARKDHLIGPNDNDFGKYSFLFKDLN	14	1	9	8	9	1	9	1
PCBP2 (protein, UniProt Q15366 1-365, looked up) Poly(rC)-binding protein 2: MDTGVIEGGLNVTLTIRLLMHGKEVGSIIGKKGESVKKMREESGARINISEGNCPERIITLAGPTNAIFKAFAMIIDKLEEDISSSMTNSTAASRPPVTLRLVVPASQCGSLIGKGGCKIKEIRESTGAQVQVAGDMLPNSTERAITIAGIPQSIIECVKQICVVMLETLSQSPPKGVTIPYRPKPSSSPVIFAGGQDRYSTGSDSASFPHTTPSMCLNPDLEGPPLEAYTIQGQYAIPQPDLTKLHQLAMQQSHFPMTHGNTGFSGIESSSPEVKGYWGLDASAQTTSHELTIPNDLIGCIIGRQGAKINEIRQMSGAQIKIANPVEGSTDRQVTITGSAASISLAQYLINVRLSSETGGMGSS	–	1	–	10	–	–	–	–
